Results on 6 molecules are retold here after patent US20230041071A1 (NATIONAL INSTITUTE OF BIOLOGICAL SCIENCES BEIJING, published 2023).

Where no end group is shown, it is not given here.

The target in test [1] is T1, mAREG-EGFd-DLLA-mFc (mouse, UniProt P31955 135-177, limits assumed).
T1 construct: Expressed in 293F cells; also called mAREG-DLLA
T1 chain: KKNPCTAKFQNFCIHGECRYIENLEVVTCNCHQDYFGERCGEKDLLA
The experiment in a line: competition ELISA; antibody titrated against 50 nM mAREG-DLLA on captured mEGFR-ECD. As for the experimental part:
Briefly, streptavidin (Sigma, 5 μg/mL) were coated in U-bottom 96-well plates, 100 nM biotinylated hEGFR-ECD or mEGFR-ECD in 100 μL per well were then captured onto the plates. Different antibodies at serial diluted concentrations were mixed with 5 nM hAREG-DLLA or 50 nM mAREG-DLLA protein and added to the ELISA plate. The binding of hAREG-DLLA to hEGFR-ECD or the binding of mAREG-DLLA to mEGFR-ECD was detected by HRP-conjugated mouse anti-mouse IgG Fc antibody (Thermo Fisher).
To facilitate the competition ELISA assay, we used the hAREG-EGFd-DLLA-mFc (hAREG-DLLA) or mAREG-EGFd-DLLA-mFc (mAREG-DLLA) as the ligands for binding to EGFR in the assay.
A general note: An ELISA detects its analyte on a solid surface through an enzyme-linked reagent.

For test [2], the target named is T2, mAREG: mouse AREG comprising residues 94-177 of the mouse pro-AREG with an N-terminal AVI tag (mouse, biotinylated using BirA enzyme (Avi tag)).
T2 construct: Expressed in E. coli, cleaved by HRV 3C protease, biotinylated; also called biotinylated mAREG
T2 chain: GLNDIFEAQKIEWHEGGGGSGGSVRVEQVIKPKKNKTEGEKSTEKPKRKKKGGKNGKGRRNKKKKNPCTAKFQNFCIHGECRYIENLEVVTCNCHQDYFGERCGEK
The test is described as follows: ELISA, biotinylated mAREG captured on streptavidin-coated plate, bound IgG detected with HRP anti-Fc antibody. As for the experimental part:
(§1) Streptavidin (Sigma, […]) in phosphate buffered saline (PBS) was coated in U-bottom 96-well plate (Nunc, MaxiSorp™), 100 μL per well, at 4° C. overnight or 37° C. for 1 hour.
(§2) About […] of AREG protein or peptide at 100 μL per well were then captured onto the plates by incubation at 30° C. for 1 hour. For phage-scFv based ELISA, serial diluted phage-scFvs in PBS containing 2% nonfat milk were added to each well at 100 μL per well. Specific bound phage-scFvs were detected by adding HRP-conjugated mouse anti-M13 antibody (GE Healthcare) and incubated for 30 mins at 30° C. In between each incubation step, the ELISA plate was washed for 6 times with PBST solution (0.05% Tween20 containing PBS) at 300 µL per well. Followed by HRP-conjugated antibody incubation, the ELISA signal was developed by incubating with TMB substrate (Sigma) for 5-10 mins at 30° C. and then the reaction was stopped with 2M H₂SO₄ at 50 µL per well. The absorbance at 450 nm with the correction wavelength set at 630 nm was read by a microplate reader (Bio-Rad). For IgG based ELISA, the method was basically the same as described above for phage-scFvs except the bound antibodies were detected by HRP-conjugated mouse anti-Fc secondary antibody (Thermo Fisher Scientific).

In test [3] the target is T3, hAREG: human AREG comprising residues 101-184 of the human pro-AREG with an N-terminal AVI tag (human, biotinylated using BirA enzyme (Avi tag)).
T3 construct: Expressed in E. coli with His6-TRX-3C site-Avi tags and cleaved by HRV 3C protease; also called biotinylated hAREG
T3 chain: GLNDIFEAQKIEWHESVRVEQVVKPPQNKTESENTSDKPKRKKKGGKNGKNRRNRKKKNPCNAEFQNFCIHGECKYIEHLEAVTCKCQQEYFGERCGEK
The experiment in a line: ELISA, biotinylated hAREG captured on streptavidin-coated plate, bound IgG detected with HRP anti-Fc antibody. The protocol:
as §1, §2

For test [4], the target named is T4, C18 peptide (human, cysteine pairing not given here; also: biotinylated, position not given here).
T4 construct: Synthetic (Scilight-peptide); also called hAREG-C18; C-terminal peptide
T4 peptide: GSSGKCQQEYFGERCGEK
The experiment in a line: ELISA, biotinylated C18 peptide captured on streptavidin-coated plate, bound IgG detected with HRP anti-Fc antibody. As for the experimental part:
as §1, §2

For test [5], the target named is T3, hAREG: human AREG comprising residues …. The test is described as follows: hybridoma screening by ELISA on biotinylated hAREG and SPR. As for the experimental part:
The supernatant of hybridoma clones were examined for binding activity to biotinylated hAREG by ELISA. Clones with high binding activity were selected and expanded for subsequent subcloning, and the supernatant of the subclones were analyzed by ELISA and SPR. The SPR analysis was performed using Biacore T200 instrument (GE Life Sciences). Diluted supernatant was captured on anti-mFc CM5 biosensor chip, then 200 nM of hAREG EGF domain-hFc flowed in mobile phase. Subclones with high affinity was expanded for RNA extraction. Cells were resuspended in TRIzol (Life Technologies), and total RNA was extracted following the instruction manual. The cDNA of subclones was synthesized using PrimeScript™ RT Master Mix (TaKaRa). The VH and VL genes of each antibody were amplified using a set of PCR primers specific to mouse antibody variable genes. PCR products were cloned into a PCR sequencing vector for sequencing.

Test [6] has the same target. The test is described as follows: ELISA screening after phage library selection.
In test [7] the target is T2, mAREG: mouse AREG comprising residues …. The test is described as follows: ELISA screening after phage library selection.
Test [8] has as its target T4, C18 peptide. The experiment in a line: phage antibody library selection on the C18 peptide and ELISA screening. The protocol: (§3) Phage particles expressing scFv on their surface (phage-ScFv) were prepared from the library and used for selection of scFvs against the target antigens including the biotinylated AREG proteins and peptides. The antigens were captured on streptavidin-conjugated magnetic M-280 Dynabeads® (Life Technologies) and then incubated with 5×10¹² phage particles prepared from the library, respectively. For each soluble AREG protein or peptide (antigen, Ab), two rounds of selection were performed. For obtaining cross-reactive human mAbs recognizing both hAREG and mAREG, the hAREG and mAREG were used respectively in the 1st and 2nd rounds of selection. […] Some of the phage-Abs were subsequently converted into human IgG1 (hIgG1) or mouse IgG2a format and analyzed for binding to both hAREG and mAREG using enzyme-linked immunosorbent assay (ELISA) or Biacore.
(§4) About […] of AREG protein or peptide at 100 μL per well were then captured onto the plates by incubation at 30° C. for 1 hour. […] Specific bound phage-scFvs were detected by adding HRP-conjugated mouse anti-M13 antibody (GE Healthcare) and incubated for 30 mins at 30° C. […] The absorbance at 450 nm with the correction wavelength set at 630 nm was read by a microplate reader (Bio-Rad). […]

Test [9] concerns the target T5, biotinylated mAREG-EGFd (expressed in E. coli) (mouse, UniProt P31955 135-177, limits assumed, biotinylated).
T5 construct: domain: EGFd; E. coli-expressed biotinylated form used for the library selection; not the mFc fusion m33
T5 chain (looked up): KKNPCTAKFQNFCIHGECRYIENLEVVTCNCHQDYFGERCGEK
The experiment in a line: phage antibody library selection and ELISA screening. The protocol:
as §3, §4

Test [10] concerns the target T6, hAREG-H164N variant (human, UniProt P15514 142-184).
T6 construct: also called H164N variant of hAREG-EGFd
T6 chain: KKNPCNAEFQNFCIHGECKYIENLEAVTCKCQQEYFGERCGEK
The experiment in a line: SPR (Biacore T200). For orientation: Surface plasmon resonance follows binding to a sensor surface in real time, without labels.

Test [11] addresses T7, hAREG-E149K variant (human, UniProt P15514 142-184).
T7 construct: also called E149K variant of hAREG-EGFd
T7 chain: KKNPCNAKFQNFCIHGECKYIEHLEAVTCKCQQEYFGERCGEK
The experiment in a line: SPR (Biacore T200).

Test [12] deals with T8, mAREG-EGFd-mFc (mouse, UniProt P31955 135-177).
T8 construct: also called EGF domain of mAREG (aa135-177) fused with mFc tag; not shown: mFc tag (Fc fragment of mouse IgG2a as for hAREG-EGFd-mFc)
T8 chain: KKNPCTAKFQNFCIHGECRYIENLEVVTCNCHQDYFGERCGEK
The experiment in a line: SPR, Biacore T200; mAb captured on anti-human Fc chip, antigen in solution. As for the experimental part:
(§5) To evaluate affinities of different mouse hybridoma mAbs or their humanized and engineered variants, SPR measurement was performed using Biacore T200 instrument. mAbs were captured on anti-human Fc CM5 biosensor chip surface, hAREG-EGFd-mFc, mAREG-EGFd-mFc or hAREG-98aa (purchased from PeproTech, cat #100-55B) in serial dilutions were injected over antibody-bound surface, followed by a dissociation phase. Association rates (Ka) and dissociation rates (Kd) were calculated using the one-to-one Langmuir binding model (BIA Evaluation Software, GE Life Sciences). The equilibrium dissociation constant (KD) was calculated as the ratio kd/ka.

The target of test [13] is T9, hAREG-EGFd-mFc (human; mouse, UniProt P15514 142-184).
T9 construct: Expressed in 293F cells; not shown: Fc fragment of mouse IgG2a
T9 chain: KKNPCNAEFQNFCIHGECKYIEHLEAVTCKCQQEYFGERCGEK
The description is as above. The protocol:
as §5

In test [14] the target is T10, hAREG-98aa (human, UniProt P15514 101-198).
T10 construct: Bought protein
T10 sequence (looked up): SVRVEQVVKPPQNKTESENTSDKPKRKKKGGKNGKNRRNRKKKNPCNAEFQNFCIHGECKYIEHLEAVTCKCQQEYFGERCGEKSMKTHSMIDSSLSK
The description is as above. The protocol:
as §5

B1: P7 (antibody, V domains shown)
VH: EVQLVQSGGGVVQPGRSLRLSCAASGFIFSSHAMSWVRQAPGKGLEWVSAISGSGGSTYYADSVKGRFTISRDNSKNTLYLQMNSLRAEDTAVYYCAKVDTKFDPWGQGTLVTVSS
VL: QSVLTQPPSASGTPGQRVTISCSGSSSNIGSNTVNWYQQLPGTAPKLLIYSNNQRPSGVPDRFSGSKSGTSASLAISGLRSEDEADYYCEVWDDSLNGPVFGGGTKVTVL
notes: Human mAb from a phage scFv library, selected on the C18 peptide; Human IgG1 or mouse IgG2a format
For B1, the binding result in test [1] was “binds”. In addition, the EC50 (read off the curve) – broadly, the midpoint of the concentration-response curve – in test [2] was roughly 0.9 nM; in [3], roughly 0.08 nM; in test [4] it was roughly 0.06 nM.

B2: 9C12 (antibody, V domains shown)
VH: EVKLVESGGGLVKPGGSLKLSCAASGFTFSSYPMSWVRQTPEKRLEWVATISTGGTYTYYPDSVKGRFTISRDNAKNTLYLQMSSLRSEDTAMYYCARQGPIYYGNYYYAMDYWGQGTSVTVSS
VL: DIVMTQPPLSLPVSLGDQASISCRSSQSLVHSDGNTYLHWYLQRPGQSPKLLIYKVSNRFSGVPDRFSGSGSGTDFTLKISRVEAEDLGVYFCSQSTHVPYTFGGGTKLEIK
notes: Mouse hybridoma mAb; made recombinantly as mIgG1, mIgG2a or chimeric human IgG1; also called m9C12
As for B2, in test [5], the binding result is listed as “binds”.

B3: E1L2 (antibody, V domains shown)
VH: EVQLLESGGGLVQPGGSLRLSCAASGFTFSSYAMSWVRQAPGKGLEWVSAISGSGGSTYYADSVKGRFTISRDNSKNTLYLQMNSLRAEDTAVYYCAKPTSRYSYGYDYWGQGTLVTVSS
VL: QAGLTQPPSVSKGLRQTATLTCTGNSNNVGDQGAVWLQQHQGHPPRLLSYRNNNRPSGISERFSASRSGNTASLTITGLQPEDEADYYCSTWDSGLNSVVFGGGTQLTVL
notes: Human mAb from a phage scFv library; Phage-Abs were converted into human IgG1 or mouse IgG2a format
As to B3, the binding result in [6], in test [7], in [8] and in test [9] was “binds” in each case.

B4: E1H3L4 (antibody, V domains shown)
VH: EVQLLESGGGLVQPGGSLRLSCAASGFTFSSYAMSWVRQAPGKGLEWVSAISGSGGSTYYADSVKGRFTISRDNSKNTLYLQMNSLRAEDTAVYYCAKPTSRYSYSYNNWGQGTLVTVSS
VL: QAVLTQPPSASGTPGQRVTISCTGNSNNVGDQGAVWYQQLPGTAPKLLIYRNNNRPSGVPDRFSGSKSGTSASLAISGLQSEDEADYYCSTWDKNNKSVVFGGGTKLTVL
notes: Human IgG1 or mouse IgG2a format
Regarding B4, the binding result in [1] is “binds”. Moreover, the “EC50 (read off the curve)” value in [2] is roughly 0.5 nM; in test [3], roughly 0.06 nM; in test [4], roughly 0.2 nM.

B5: hu9C12v4 (antibody, V domains shown)
VH: EVQLVESGGGLVKPGGSLRLSCAASGFTFSSYPMSWVRQAPEKGLEWVSTISTGGRYTYYPDSVKGRFTISRDNAKNSLYLQMNSLRAEDTAVYYCARQGPIYYGNYYYAMDYWGQGTTVTVSS
VL: DIVMTQSPLSLPVTLGDPASISCRSSQSLVDGEDGTYLNWFQQRPGQSPKLLIYKVSERFDGVPDRFSGSGSGTDFTLKISRVEAEDVGVYYCSQSTHVPYTFGGGTKVEIK
notes: Humanized 9C12 variant
For B5, the binding result in [10] is reported as “no binding”; in test [11] it was “binds”; in [1], “binds”. In addition, the figures for the Kd in test [12], in test [13] and in [14] were 9.01 nM, 1.04 nM and 0.462 nM, respectively. Also, the koff (usually the first-order rate constant of dissociation) turned out to be 0.00077 s⁻¹ in [13] and 0.00372 s⁻¹ in test [14]. The kon (commonly the second-order rate constant of association) worked out at 745000 M⁻¹ s⁻¹ in test [13] and 8.04e+06 M⁻¹ s⁻¹ in test [14].

B6: 23H8 (antibody, V domains shown)
VH: EVQLQESGGGLVKPGGSLKLSCAASGFTFNSYAMSWVRQTPEKRLEWVATISTGGSHTYYPDSVKGRFTISRDNAKNTLYLQMSSLRSEDTAMYYCARHGYLLYDGYYEWYFDVWGAGTTVTVSS
VL: DIVLTQSPASLAVSLGQRATISCKASQSVDYDGHSFLNWYQQKPGQPPKLLIYAASNLESGLPARFSGSGSGTDFTLNIHPVEEEDAATYYCQQSTEDPPYTFGGGTKLEIK
notes: Mouse hybridoma mAb; made recombinantly as mIgG1, mIgG2a or chimeric human IgG1; also called m23H8
In the case of B6, the binding result in test [5] is “binds”.
